Substitutions are numbered along the chain they refer to.
Assays:
human AXL (full length) [1] = molecular target: T1, human AXL (full length) (human, UniProt P30530 26-894); assay: FMAT screening assay, HEK-293F cells transiently expressing human AXL
T1 construct: also called TH1021-AXL; TH1021-hAXL

[2] = molecular target: T2, Homo sapiens AXL-Mus musculus Ig2 domain (p33-AXL-mIg2) (human-mouse chimera, UniProt P30530 26-894); assay: flow cytometry, 1 µg/mL antibody, transfected HEK293F cells
T2 construct: Expressed in HEK293F cells; also called hsAXL-mmIg2; TH1021-mIg2
T2 chain: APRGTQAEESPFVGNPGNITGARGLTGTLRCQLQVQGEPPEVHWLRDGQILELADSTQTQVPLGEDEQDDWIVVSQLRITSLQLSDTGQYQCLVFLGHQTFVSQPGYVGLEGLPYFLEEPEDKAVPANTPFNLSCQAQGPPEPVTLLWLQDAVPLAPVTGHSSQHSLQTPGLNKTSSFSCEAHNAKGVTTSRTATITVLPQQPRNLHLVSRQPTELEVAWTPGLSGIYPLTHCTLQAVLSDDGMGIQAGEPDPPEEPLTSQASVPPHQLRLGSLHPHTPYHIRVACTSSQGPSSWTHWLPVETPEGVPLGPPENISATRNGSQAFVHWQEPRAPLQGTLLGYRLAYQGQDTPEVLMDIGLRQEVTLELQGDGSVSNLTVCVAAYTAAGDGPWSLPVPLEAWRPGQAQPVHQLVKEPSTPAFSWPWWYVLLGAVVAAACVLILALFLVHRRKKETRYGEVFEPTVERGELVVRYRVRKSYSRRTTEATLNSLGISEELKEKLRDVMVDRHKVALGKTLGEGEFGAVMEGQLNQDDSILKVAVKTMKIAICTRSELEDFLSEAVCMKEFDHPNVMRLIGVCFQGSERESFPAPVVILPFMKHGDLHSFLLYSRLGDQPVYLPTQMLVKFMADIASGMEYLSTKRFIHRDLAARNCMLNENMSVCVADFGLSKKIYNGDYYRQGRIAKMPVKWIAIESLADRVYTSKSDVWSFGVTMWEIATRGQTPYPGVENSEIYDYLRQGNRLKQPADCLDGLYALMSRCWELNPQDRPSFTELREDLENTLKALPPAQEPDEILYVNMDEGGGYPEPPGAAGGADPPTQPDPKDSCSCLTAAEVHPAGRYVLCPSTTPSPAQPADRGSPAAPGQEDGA

[3] = molecular target: T3, Homo sapiens AXL-Mus musculus Ig1 domain (p33-AXL-mIg1) (human-mouse chimera, UniProt P30530 8-894); assay: as above
T3 construct: Expressed in HEK293F cells; also called hsAXL-mmIg1; hsAXL-mmIgl
T3 chain: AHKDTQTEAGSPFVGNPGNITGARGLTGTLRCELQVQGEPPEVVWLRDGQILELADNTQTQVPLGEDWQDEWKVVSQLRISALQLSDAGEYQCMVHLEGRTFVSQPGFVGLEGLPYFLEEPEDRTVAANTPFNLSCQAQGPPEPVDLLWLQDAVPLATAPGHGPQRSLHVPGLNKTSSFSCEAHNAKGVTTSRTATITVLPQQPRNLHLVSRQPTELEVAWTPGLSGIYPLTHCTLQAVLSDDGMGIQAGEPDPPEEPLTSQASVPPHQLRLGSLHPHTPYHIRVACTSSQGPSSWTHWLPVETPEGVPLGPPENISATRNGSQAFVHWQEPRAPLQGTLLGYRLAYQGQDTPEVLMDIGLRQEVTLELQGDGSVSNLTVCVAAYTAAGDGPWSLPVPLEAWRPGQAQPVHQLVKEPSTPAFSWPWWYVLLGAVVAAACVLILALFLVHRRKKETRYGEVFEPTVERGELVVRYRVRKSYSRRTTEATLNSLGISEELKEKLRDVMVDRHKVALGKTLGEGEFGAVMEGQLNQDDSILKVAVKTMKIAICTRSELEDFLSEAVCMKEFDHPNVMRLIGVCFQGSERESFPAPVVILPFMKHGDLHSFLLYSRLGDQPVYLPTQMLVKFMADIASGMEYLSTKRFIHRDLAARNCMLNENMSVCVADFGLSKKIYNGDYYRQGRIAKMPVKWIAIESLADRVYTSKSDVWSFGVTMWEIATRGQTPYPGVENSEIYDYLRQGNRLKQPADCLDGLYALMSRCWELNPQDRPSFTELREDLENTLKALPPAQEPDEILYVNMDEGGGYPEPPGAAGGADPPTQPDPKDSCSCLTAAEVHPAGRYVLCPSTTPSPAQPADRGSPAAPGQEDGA

[4] = molecular target: T4, Homo sapiens AXL-Mus musculus FN2 domain (p33-AXL-mFN2) (human-mouse chimera, UniProt P30530 26-894); assay: as above
T4 construct: Expressed in HEK293F cells; also called hsAXL-mmFN2; TH1021-mFN2
T4 chain: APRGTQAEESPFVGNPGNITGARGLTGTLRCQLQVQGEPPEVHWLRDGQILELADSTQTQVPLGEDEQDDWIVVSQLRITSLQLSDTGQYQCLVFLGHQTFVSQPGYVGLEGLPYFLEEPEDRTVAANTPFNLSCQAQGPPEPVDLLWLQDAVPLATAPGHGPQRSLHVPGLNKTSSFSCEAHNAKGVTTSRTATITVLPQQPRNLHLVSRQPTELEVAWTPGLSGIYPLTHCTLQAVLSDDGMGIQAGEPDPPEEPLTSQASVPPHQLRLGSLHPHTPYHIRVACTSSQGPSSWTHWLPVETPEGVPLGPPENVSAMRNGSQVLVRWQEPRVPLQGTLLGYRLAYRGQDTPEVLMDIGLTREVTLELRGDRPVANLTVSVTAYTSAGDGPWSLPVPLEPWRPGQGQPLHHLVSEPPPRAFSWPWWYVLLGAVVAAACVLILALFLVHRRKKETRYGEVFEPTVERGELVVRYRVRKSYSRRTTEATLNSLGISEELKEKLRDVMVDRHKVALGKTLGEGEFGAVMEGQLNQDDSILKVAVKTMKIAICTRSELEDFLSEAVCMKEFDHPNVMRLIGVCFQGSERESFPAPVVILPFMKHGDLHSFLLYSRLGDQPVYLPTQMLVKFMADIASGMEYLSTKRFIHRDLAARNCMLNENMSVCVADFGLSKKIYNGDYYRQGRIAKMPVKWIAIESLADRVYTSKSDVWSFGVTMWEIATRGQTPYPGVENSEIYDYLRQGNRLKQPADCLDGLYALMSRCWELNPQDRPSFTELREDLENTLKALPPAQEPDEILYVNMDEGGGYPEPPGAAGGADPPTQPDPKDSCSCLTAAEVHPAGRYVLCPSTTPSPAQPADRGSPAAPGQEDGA

[5] = molecular target: T5, human AXL with a cynomolgus monkey extracellular domain (ECD) (cynomolgus monkey (Macaca …, UniProt P30530 26-894)); assay: flow cytometry, HEK293T cells with human AXL carrying cynomolgus ECD
T5 construct: Chimera on transfected HEK293T cells; also called cynomolgus AXL; cynomolgus AXL-ECD
T5 chain: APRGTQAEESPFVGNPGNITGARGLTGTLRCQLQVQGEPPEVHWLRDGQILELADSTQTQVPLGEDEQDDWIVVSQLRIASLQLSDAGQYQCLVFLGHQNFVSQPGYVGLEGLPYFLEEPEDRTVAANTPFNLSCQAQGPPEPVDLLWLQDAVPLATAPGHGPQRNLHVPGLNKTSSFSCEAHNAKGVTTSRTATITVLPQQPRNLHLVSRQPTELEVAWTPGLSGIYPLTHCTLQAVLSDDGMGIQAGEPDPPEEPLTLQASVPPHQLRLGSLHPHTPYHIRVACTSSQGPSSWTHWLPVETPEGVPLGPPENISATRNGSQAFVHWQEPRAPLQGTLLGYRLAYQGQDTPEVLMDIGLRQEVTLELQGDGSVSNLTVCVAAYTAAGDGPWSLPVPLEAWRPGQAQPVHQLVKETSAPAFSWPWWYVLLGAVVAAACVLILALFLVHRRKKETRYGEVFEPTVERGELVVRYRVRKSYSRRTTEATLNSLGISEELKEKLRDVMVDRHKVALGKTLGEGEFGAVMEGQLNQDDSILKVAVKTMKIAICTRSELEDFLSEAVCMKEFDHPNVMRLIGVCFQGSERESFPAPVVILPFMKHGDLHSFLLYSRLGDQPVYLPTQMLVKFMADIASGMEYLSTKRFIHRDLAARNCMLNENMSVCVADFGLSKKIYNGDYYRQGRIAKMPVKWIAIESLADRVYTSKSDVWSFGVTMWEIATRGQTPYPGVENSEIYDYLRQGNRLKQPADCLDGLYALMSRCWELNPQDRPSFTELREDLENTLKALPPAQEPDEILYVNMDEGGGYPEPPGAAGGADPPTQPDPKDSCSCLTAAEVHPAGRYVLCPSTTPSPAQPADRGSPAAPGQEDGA

AXLECDHis = molecular target: T6, AXLECDHis (human, UniProt P30530 26-447); assay: BLI (Octet), IgG on anti-human Fc sensor, AXLECDHis analyte
T6 construct: theoretical mass 46 kDa used; also called extracellular domain (ECD) of human AXL (aa 1-447) with a C-terminal His tag; soluble recombinant AXL extracellular domain

human AXL (full length) [6] = molecular target: T1, human AXL (full length); assay: flow cytometry, HEK293T cells with full-length human AXL

B1: IgG1-AXL-140 (antibody, V domains shown)
VH: EVQLLESGGGLVQPGGSLRLSCAASGFTFSSYAMTWVRQAPGKGLEWVSAISISGASTFYADSVKGRFTISRDNSKNTLSLQMNSLRAEDTAVYFCRGYSGYVYDAFDIWGQGTMVTVSS
VL: DIQMTQSPSSLSASVGDRVTITCRASQGISNWLAWYQQKPEKAPKSLIYAASSLQSGVPSRFSGSGSGTDFTLTISSLQPEDFATYYCQQYNSYPLTFGGGTKVEIK
With B1 the EC50 (human AXL (full length) [1]) was 0.0026 µg/mL and the “Maximal binding (Arbitrary units)” value (human AXL (full length) [1]) was 2890 arbitrary units.

B2: IgG1-AXL-154 (antibody, V domains shown)
VH: EVQLLDSGGGLVQPGGSLRLSCAASGFTFSSYAMSWVRQAPGKGLEWVSAISIGGGNAYYADSVKGRFTISRDNSKNTLYLQMNSLRAADTAVYYCAKPGFIMVRGPLDYWGQGALVTVSS
VL: not shown
B2: binds [2]; binds [3]; binds [4].

B3: IgG1-AXL-187 (antibody, V domains shown)
VH: QVPLQQWGAGLLKPSETLSLTCAVYGGSFSGYHWSWIRQPPGKGLEWIGEISHSGRTNYNPSLKSRVTISIDTSKNQFSLKLSSVTAADTAVYYCASFITMIRGTIITHFDYWGQGTLVTVSS
VL: B1 VL with N31S, N92H, L96Y, G100Q, V104L
In the case of B3, the EC50 (human AXL (full length) [1]) is reported as 0.0065 µg/mL and the “Maximal binding (Arbitrary units)” value (human AXL (full length) [1]) is reported as 2560 arbitrary units.

B4: IgG1-AXL-726-M101L (antibody, V domains shown)
VH: B3 VH with P3Q, V24I, Y25D, H33Y, T86A, S97R, M101L, T105A, T117A
VL: B1 VL with N31S, N92H, L96Y, G100Q, V104L
notes: Expressed as human IgG1,κ
B4 gave an EC50 [5] of 0.25 µg/mL, a Kd (AXLECDHis) of 0.3 nM and a koff (AXLECDHis) of 6.9e-05 s⁻¹. The kon (AXLECDHis) was 210000 M⁻¹ s⁻¹ and the EC50 (human AXL (full length) [6]) was 0.184 µg/mL.

B5: IgG1-AXL-613-08 (antibody, V domains shown)
VH: QVQLVQSGAEVKKPGSSVKVSCKASGGTFSSYAINWMRQAPGQGLEWMGRIIPIFGIVNYAQKFQGRVTLTADKSTSTAYMELSSLRSEDTAVYYCARRGNYYGSGSPDVFDIWGQGTMVTVSS
VL: EIVLTQSPATLSLSPGERATLSCRASQSVSSYLAWYQQKPGQAPRLLIYDASNRATGIPARFSGSGSGTDFTLTISSLEPEDFAVYYCQQRSNWLTFGGGTKVEIK
For B5, the EC50 (human AXL (full length) [1]) was 0.0242 µg/mL and the “Maximal binding (Arbitrary units)” value (human AXL (full length) [1]) was 2210 arbitrary units.

Reference: US20180326084A1 (Genmab, published 2018)
